According to IntAct's records for PubMed 21454543:

Tests used:
rac1_human RAC1 = rac1_human RAC1 (UniProt P63000)
lrrk2_human LRRK2 = lrrk2_human LRRK2 (UniProt Q5S007)

Leucine-rich repeat serine/threonine-protein kinase 2 (Homo sapiens), Q5S007 I2020T
effect of a mutation on the interaction (rac1_human RAC1): increasing interaction

Leucine-rich repeat serine/threonine-protein kinase 2 (Homo sapiens), Q5S007 R1441C
effect of a mutation on the interaction (rac1_human RAC1): disrupting interaction

Leucine-rich repeat serine/threonine-protein kinase 2 (Homo sapiens), Q5S007 Y1699C
effect of a mutation on the interaction (rac1_human RAC1): increasing interaction

Leucine-rich repeat serine/threonine-protein kinase 2 (Homo sapiens), Q5S007 G2019S
effect of a mutation on the interaction (rac1_human RAC1): decreasing interaction

Ras-related C3 botulinum toxin substrate 1 (Homo sapiens) (from UniProt P63000) T17N
effect of a mutation on the interaction (lrrk2_human LRRK2): decreasing interaction

Leucine-rich repeat serine/threonine-protein kinase 2 (Homo sapiens), Q5S007 K1906M
effect of a mutation on the interaction (rac1_human RAC1): decreasing interaction
